Measurements from the supplement of paper PMC9112550, “Optimization of the antimicrobial peptide Bac7 by deep mutational scanning” (BMC Biology, 2022).

System: Escherichia coli TOP10
Assay: shrunken log2 fold change of peptide-encoding DNA abundance (4.5 h post-induction vs induction); higher = less antimicrobial activity (less host growth inhibition)
Conditions: time post-induction: 4.5 h; library: site-saturation at positions 5, 18, 19, 20
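Note: peptides expressed intracellularly from a pBAD plasmid library in pooled LB shake-flask culture, induced with 0.3% L-arabinose, DNA abundance read by NGS, three biological replicates, DESeq2 with apeglm shrinkage.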

Sequence | shrunken log2 fold change
RRIRSRPPRLPRPRPRPWWTPRP | -0.127
RRIRWRPPRLPRPRPRPHSTPRP | -0.209
RRIRDRPPRLPRPRPRPKSMPRP | -0.0219
RRIRMRPPRLPRPRPRPYGMPRP | 0.162
RRIRSRPPRLPRPRPRPNQSPRP | -0.0432
RRIRARPPRLPRPRPRPRIDPRP | 0.74
RRIRPRPPRLPRPRPRPQDRPRP | -0.0277
RRIRKRPPRLPRPRPRPRPMPRP | 0.585
RRIRARPPRLPRPRPRPVWCPRP | 0.293
RRIRNRPPRLPRPRPRPTYQPRP | -0.0398
RRIRGRPPRLPRPRPRPYKLPRP | -0.481
RRIRCRPPRLPRPRPRPKKDPRP | -0.000499
RRIRLRPPRLPRPRPRPSSMPRP | -0.179
RRIRARPPRLPRPRPRPTIEPRP | 0.225
RRIRHRPPRLPRPRPRPTKSPRP | -0.0287
RRIRTRPPRLPRPRPRPHSQPRP | -0.101
RRIRTRPPRLPRPRPRPLRFPRP | 0.742
RRIRVRPPRLPRPRPRPLCEPRP | -0.131
RRIRKRPPRLPRPRPRPTFWPRP | 0.36
RRIRFRPPRLPRPRPRPDHDPRP | -0.217
RRIRARPPRLPRPRPRPFLPPRP | -0.379
RRIRNRPPRLPRPRPRPYYDPRP | -0.0248
RRIRKRPPRLPRPRPRPGWYPRP | -0.0717
RRIRVRPPRLPRPRPRPWFNPRP | -0.437
RRIRMRPPRLPRPRPRPPEDPRP | 1.66

Sequence | shrunken log2 fold change
RRIRYRPPRLPRPRPRPEVVPRP | -0.219
RRIRMRPPRLPRPRPRPIDFPRP | -0.00165
RRIRARPPRLPRPRPRPLYQPRP | 0.141
RRIRTRPPRLPRPRPRPHINPRP | -0.454
RRIRKRPPRLPRPRPRPFCNPRP | 0.128
RRIRWRPPRLPRPRPRPDVYPRP | 0.00123
RRIRKRPPRLPRPRPRPWWLPRP | 0.252
RRIRNRPPRLPRPRPRPEQYPRP | -0.153
RRIRFRPPRLPRPRPRPTHSPRP | 0.207
RRIRCRPPRLPRPRPRPSKAPRP | 0.0693
RRIRGRPPRLPRPRPRPFCPPRP | -0.0253
RRIRLRPPRLPRPRPRPDELPRP | 0.00705
RRIRERPPRLPRPRPRPVEVPRP | -0.209
RRIRTRPPRLPRPRPRPCKHPRP | -0.0101
RRIRRRPPRLPRPRPRPGVAPRP | 0.858
RRIRNRPPRLPRPRPRPENIPRP | -0.435
RRIRHRPPRLPRPRPRPENYPRP | -0.327
RRIRHRPPRLPRPRPRPPVAPRP | 0.0782
RRIRSRPPRLPRPRPRPNWKPRP | 0.00354
RRIRIRPPRLPRPRPRPTVDPRP | 0.11
RRIRIRPPRLPRPRPRPVKEPRP | -0.0496
RRIRQRPPRLPRPRPRPYQYPRP | -0.016
RRIRNRPPRLPRPRPRPESSPRP | -0.00568
RRIRERPPRLPRPRPRPKTWPRP | -0.104
RRIRPRPPRLPRPRPRPESVPRP | 0.0986

Sequence | shrunken log2 fold change
RRIRGRPPRLPRPRPRPLPSPRP | 0.83
RRIRGRPPRLPRPRPRPISSPRP | 0.393
RRIRTRPPRLPRPRPRPTLIPRP | -0.108
RRIRARPPRLPRPRPRPKWPPRP | 0.751
RRIRHRPPRLPRPRPRPDKQPRP | 0.0409
RRIRQRPPRLPRPRPRPGRWPRP | 0.446
RRIRFRPPRLPRPRPRPCDWPRP | -0.0151
RRIRARPPRLPRPRPRPSQHPRP | -0.117
RRIRARPPRLPRPRPRPYWYPRP | -0.763
RRIRFRPPRLPRPRPRPCRTPRP | 0.048
RRIRWRPPRLPRPRPRPPLIPRP | -0.0843
RRIRHRPPRLPRPRPRPQVYPRP | -0.21
RRIRNRPPRLPRPRPRPEWYPRP | -0.451
RRIRFRPPRLPRPRPRPWSWPRP | -0.169
RRIRTRPPRLPRPRPRPIIDPRP | -0.000898
RRIRWRPPRLPRPRPRPSCGPRP | 0.0847
RRIRWRPPRLPRPRPRPHGNPRP | 0.132
RRIRCRPPRLPRPRPRPWSCPRP | -0.739
RRIRERPPRLPRPRPRPNGIPRP | -0.115
RRIRGRPPRLPRPRPRPSRNPRP | 0.0365
RRIRFRPPRLPRPRPRPQKWPRP | -0.0281
RRIRNRPPRLPRPRPRPLMIPRP | -0.0419
RRIRFRPPRLPRPRPRPCCNPRP | -0.0548
RRIRDRPPRLPRPRPRPIHAPRP | 0.125
RRIRHRPPRLPRPRPRPKPCPRP | -0.139

Sequence | shrunken log2 fold change
RRIRARPPRLPRPRPRPNFPPRP | -0.0362
RRIRVRPPRLPRPRPRPGYAPRP | 0.0532
RRIRCRPPRLPRPRPRPCIEPRP | -0.453
RRIRIRPPRLPRPRPRPFATPRP | -0.0964
RRIRSRPPRLPRPRPRPHPVPRP | 0.12
RRIRNRPPRLPRPRPRPMIDPRP | -0.0621
RRIRVRPPRLPRPRPRPFFSPRP | -0.371
RRIRCRPPRLPRPRPRPDFQPRP | -0.294
RRIRGRPPRLPRPRPRPWYAPRP | -0.249
RRIRHRPPRLPRPRPRPESCPRP | 0.0512
RRIRRRPPRLPRPRPRPDPPPRP | 0.443
RRIRVRPPRLPRPRPRPTVHPRP | -0.0675
RRIRNRPPRLPRPRPRPKQKPRP | 0.0568
RRIRDRPPRLPRPRPRPTKLPRP | 0.0975
RRIRFRPPRLPRPRPRPPEVPRP | 0.795
RRIRIRPPRLPRPRPRPPMIPRP | -0.112
RRIRERPPRLPRPRPRPTNEPRP | -0.676
RRIRTRPPRLPRPRPRPLCGPRP | 0.0512
RRIRCRPPRLPRPRPRPVYFPRP | -0.711
RRIRIRPPRLPRPRPRPPGEPRP | 0.0604
RRIRWRPPRLPRPRPRPFNNPRP | -0.494
RRIRPRPPRLPRPRPRPFDSPRP | -0.0336
RRIRGRPPRLPRPRPRPDQQPRP | 0.074
RRIRVRPPRLPRPRPRPYAKPRP | -0.0931
RRIRWRPPRLPRPRPRPIMDPRP | -0.195

Sequence | shrunken log2 fold change
RRIRERPPRLPRPRPRPWISPRP | 0.0119
RRIRNRPPRLPRPRPRPLDAPRP | 0.0657
RRIRRRPPRLPRPRPRPQIPPRP | 0.00964
RRIRMRPPRLPRPRPRPDTDPRP | 0.0472
RRIRNRPPRLPRPRPRPCETPRP | -0.0224
RRIRYRPPRLPRPRPRPEPDPRP | 0.0689
RRIRYRPPRLPRPRPRPTSTPRP | -0.203
RRIRQRPPRLPRPRPRPRDYPRP | 0.0272
RRIRSRPPRLPRPRPRPVYAPRP | 0.0491
RRIRSRPPRLPRPRPRPVNGPRP | -0.00994
RRIRSRPPRLPRPRPRPSHHPRP | -0.515
RRIRPRPPRLPRPRPRPLHMPRP | -0.342
RRIRVRPPRLPRPRPRPTESPRP | -0.00266
RRIRSRPPRLPRPRPRPISGPRP | -0.176
RRIRHRPPRLPRPRPRPHKNPRP | -0.263
RRIRKRPPRLPRPRPRPGMTPRP | 0.129
RRIRARPPRLPRPRPRPMDIPRP | 0.142
RRIRWRPPRLPRPRPRPESYPRP | -0.134
RRIRQRPPRLPRPRPRPEILPRP | 0.00769
RRIRRRPPRLPRPRPRPIEMPRP | 0.0754
RRIRDRPPRLPRPRPRPIECPRP | 0.279
RRIRERPPRLPRPRPRPISVPRP | -0.137
RRIRIRPPRLPRPRPRPKWHPRP | -0.27
RRIRPRPPRLPRPRPRPDTSPRP | -0.738
RRIRDRPPRLPRPRPRPAKYPRP | -0.315

Sequence | shrunken log2 fold change
RRIRQRPPRLPRPRPRPIRVPRP | -0.00674
RRIRQRPPRLPRPRPRPMPVPRP | -0.00339
RRIRSRPPRLPRPRPRPQEEPRP | -0.0262
RRIRIRPPRLPRPRPRPMKNPRP | -0.359
RRIRLRPPRLPRPRPRPESCPRP | 0.0209
RRIRIRPPRLPRPRPRPRKGPRP | 0.05
RRIRCRPPRLPRPRPRPPTVPRP | 0.202
RRIRDRPPRLPRPRPRPWCPPRP | -0.422
RRIRNRPPRLPRPRPRPSMAPRP | -0.139
RRIRRRPPRLPRPRPRPPMWPRP | 0.548
RRIRSRPPRLPRPRPRPQVAPRP | 0.0589
RRIRTRPPRLPRPRPRPPCDPRP | 0.0499
RRIRYRPPRLPRPRPRPPILPRP | -0.498
RRIRNRPPRLPRPRPRPHMIPRP | -0.168
RRIRARPPRLPRPRPRPEWCPRP | 0.72
RRIRGRPPRLPRPRPRPQFMPRP | 0.0535
RRIRERPPRLPRPRPRPMAFPRP | 0.099
RRIRVRPPRLPRPRPRPVSAPRP | -0.141
RRIRYRPPRLPRPRPRPTELPRP | 0.0588
RRIRVRPPRLPRPRPRPMHFPRP | -0.409
RRIRFRPPRLPRPRPRPEAVPRP | 0.323
RRIRNRPPRLPRPRPRPQTSPRP | -0.346
RRIRHRPPRLPRPRPRPRFPPRP | 0.0956
RRIRHRPPRLPRPRPRPYLPPRP | -0.618
RRIRLRPPRLPRPRPRPNKPPRP | -0.0372
